Measurements from publication PMC6644156, “A de novo substitution in BCL11B leads to loss of interaction with transcriptional complexes and craniosynostosis” (Human Molecular Genetics, 2019).
Residue numbers refer to the chain shown, from its start. Names and notes keep the numbering of the source.

B1: BCL11B: FLAG-BCL11B, wild-type protein expressed in transfected HEK293T cells (protein)
chain: MSRRKQGNPQHLSQRELITPEADHVEAAILEEDEGLEIEEPSGLGLMVGGPDPDLLTCGQCQMNFPLGDILVFIEHKRKQCGGSLGACYDKALDKDSPPPSSRSELRKVSEPVEIGIQVTPDEDDHLLSPTKGICPKQENIAGPCRPAQLPAVAPIAASSHPHSSVITSPLRALGALPPCLPLPCCSARPVSGDGTQGEGQTEAPFGCQCQLSGKDEPSSYICTTCKQPFNSAWFLLQHAQNTHGFRIYLEPGPASSSLTPRLTIPPPLGPEAVAQSPLMNFLGDSNPFNLLRMTGPILRDHPGFGEGRLPGTPPLFSPPPRHHLDPHRLSAEEMGLVAQHPSAFDRVMRLNPMAIDSPAMDFSRRLRELAGNSSTPPPVSPGRGNPMHRLLNPFQPSPKSPFLSTPPLPPMPPGGTPPPQPPAKSKSCEFCGKTFKFQSNLIVHRRSHTGEKPYKCQLCDHACSQASKLKRHMKTHMHKAGSLAGRSDDGLSAASSPEPGTSELAGEGLKAADGDFRHHESDPSLGHEPEEEDEEEEEEEEELLLENESRPESSFSMDSELSRNRENGGGGVPGVPGAGGGAAKALADEKALVLGKVMENVGLGALPQYGELLADKQKRGAFLKRAAGGGDAGDDDDAGGCGDAGAGGAVNGRGGGFAPGTEPFPGLFPRKPAPLPSPGLNSAAKRIKVEKDLELPPAALIPSENVYSQWLVGYAASRHFMKDPFLGFTDARQSPFATSSEHSSENGSLRFSTPPGDLLDGGLSGRSGTASGGSTPHLGGPGPGRPSSKEGRRSDTCEYCGKVFKNCSNLTVHRRSHTGERPYKCELCNYACAQSSKLTRHMKTHGQIGKEVYRCDICQMPFSVYSTLEKHMKKWHGEHLLTNDVKIEQAERS
modifications: left off: FLAG, end not stated, kept
notes: FLAG-BCL11B, wild-type protein expressed in transfected HEK293T cells
B2: BCL11B p.R3S: FLAG-BCL11B p.R3S, patient-derived mutant protein expressed in transfected HEK293T cells (protein, UniProt Q9C0K0 1-894, looked up, variant R3S)
B-cell lymphoma/leukemia 11B: B1 chain with R3S
modifications: FLAG tag
notes: FLAG-BCL11B p.R3S, patient-derived mutant protein expressed in transfected HEK293T cells

Tests used:
PRC2 complex = assay: Co-immunoprecipitation with PRC2 complex (EZH2) in transfected HEK293T cells; format: binding; details: anti-FLAG co-IP, HEK293T extracts; EZH2 as PRC2 marker
Method: (§1) HEK293T cells were transfected with vectors encoding FLAG-BCL11B ([54]), FLAG-BCL11B p.R3S or Myc-SIRT1 using the calcium phosphate method. Transfected cells were harvested in ice-cold phosphate-buffered saline (PBS) 48 h after transfection. Cell suspensions were centrifuged at 2000g for 5 min, followed by lysis under native conditions in buffer containing 20 mM HEPES, pH 7.4, 250 mM NaCl, 2 mM EDTA, 10% glycerol, 0.5% NP-40, 0.1 mM PMSF, 1 μg/mL pepstatin A, 5 μg/mL leupeptin, 10 μM E64, 25 mM NaF, 5 mM […] and 10 mMN-ethylmaleimide. Cells were incubated on ice for 30 min with vortexing every 5 min, followed by sonication on ice to complete lysis and shear DNA. The lysate was cleared by centrifugation, and BCL11B was immunoprecipitated from native extracts with anti-FLAG antibody (Sigma F4042), as previously described ([54]). […] Fluorescent signal was recorded on an Odyssey dual-channel near-infrared imager (LI-COR) and analysed with manufacturer-supplied software (Image Studio, version 2.1).

NuRD complex = assay: Co-immunoprecipitation with NuRD complex (MTA2, HDAC2) in transfected HEK293T cells; format: binding; details: anti-FLAG co-IP, HEK293T extracts; MTA2 and HDAC2 as NuRD markers
Method: as §1

SIRT1 = assay: Co-immunoprecipitation with SIRT1 in transfected HEK293T cells; format: binding; details: anti-FLAG co-IP, HEK293T extracts; Myc-SIRT1
Method: as §1

HEK293T cells = assay: Immunocytochemistry (expression and nuclear localization) in HEK293T cells; format: cell-based; details: 48 h after transfection, anti-BCL11B and DAPI
Method: HEK293T cells were grown on 0.1% gelatin-coated glass coverslips in 24-well plates seeded at 25 000 cells/well for 24 h prior to transfection with vectors encoding FLAG-BCL11B or FLAG-BCL11B p.R3S. Forty-eight hours after transfection, cells were washed twice with PBS, fixed in 4% paraformaldehyde in PBS for 10 min at room temperature, permeabilized with 0.3% Triton X-100/PBS for 10 min and washed twice with 0.1% Tween/PBS. The fixed and permeabilized cells were then prepared for immunocytochemistry by blocking for 1 h in 10% foetal bovine serum (FBS) in PBS, incubating for 4 h with rat anti-BCL11B monoclonal antibody (Abcam ab18465, 0.25 μg/ml) in 10% FBS/PBS, then incubating for 1.5 h with an anti-rat Cy3-conjugated secondary antibody (Jackson ImmunoResearch Laboratories, 1:500 dilution), followed by a final incubation in 10 μg/ml DAPI in PBS for 10 min. Cells were washed twice with 0.1% Tween/PBS between each immunocytochemistry step, and all incubations were conducted at room temperature. Cells were then washed twice with deionized water, followed by step-wise dehydration with 70% ethanol, 100% ethanol and xylene. Coverslips were then mounted on glass slides with DPX (VWR), dried overnight and stored at 4°C in the dark. Fluoromicrographs were obtained using a Zeiss microscope with appropriate filters and a 63× oil-immersion objective. […]

| Molecule | interaction with PRC2 complex (PRC2 complex) | interaction with NuRD complex (NuRD complex) | interaction with SIRT1 (SIRT1) | expression and nuclear localization (HEK293T cells) |
| --- | --- | --- | --- | --- |
| B1 | demonstrated herein |  |  |  |
| B2 | does not interact with the NuRD or PRC2 complexes | does not interact with the NuRD or PRC2 complexes | did not alter interaction of the protein with the class III histone deacetylase SIRT1 | well expressed and localized in the nucleus in a manner that was indistinguishable from wild-type protein |
